{"source": "the DeepSol protein solubility set"}
{"assay": "soluble on expression in E. coli; label from the status in PepcDB or PDB records"}
{"sequence": "MSGEESMPDEEQKQSEEEEEMIRKRTLAMRKKVEEIMRNGAGLVRESNGLPKAGADYELYNSYPTFNTFMKRSEQRLNALMNKVTKSIGCAMRVPDVGSSVEHYTECVIEAQDNIAERAATLHEALKKAELDEIVKVPEFITKAAPTNRKTEAEVSAAMRTFSANIGTVLAEKFRERREEAAQMVVLEKPQKTYNISSDNSQAPFSSKLTVKHHAIEKRTGIVLHDDDESGRRDWISAETETEEEHPYIAEILHFKVPEAQLKSAECLKFTALKDTPLTMIDTKEKLEALTKTLNSVKEFAVDLEHHQMRSYLGLTCLIQISTRDEDFIIDPFPIWDHVGMLNEPFANPRILKVFHGSDSDVLWLQRDYGVHVVNLFDTYVAMKKLKYPKFSLAYLTLRFADVVLDKQYQLADWRARPLRNAMINYAREDTHYLLYSYDMLREQLLKQDTKDLANVYSESSDLCIKVYKKPVFNPKGYLTEIKFRFTLNTRQDYALTHLFKWRDVVARAEDESPHFVLPNHMMLSLSETLPRDVGGIYACCNPLPYFVKQRTGDILKIIVEARDVKLEKVGLSAKERNDAQEARGVMNDTMDHITSVLKSKIDFSHTRFDEERGEIYIDKTDEGMDIELKDHKESLLSVLQTAEIPSVETMIVVEKGKKSDNQKVKKLLNELDKFVTPFECYQMMMITKEKQEEEERKEAERKKLEEGDLPKTMFSHHDAPINRKPEFDAKLLNVDTLKLVPDDPNKPKDPEPSPMEESSSEPQIFDPSRFTDDQLLSKKAMKRKRDAARRNIDVSVVLGESSSSSDPKKKKSDDDAPVEDFDYEKADSSAFEKPVRDNNADFDPFHQKYRLKNKTKKNMAMKKSSNRQGTINYKK", "soluble on expression in E. coli": "not soluble"}
{"sequence": "MSGKLYICPTPIGNLEDITYRTLRTLKEVDLIAAEDTRHSIKLLNHFEISKPLTSYHEHNKDSKGDYLINKLIDGENIALISDAGMPGISDPGEEIIKQAIQNNIEIEVLPGA", "soluble on expression in E. coli": "not soluble"}
{"sequence": "MSGNQMAMGSEQQQTVGSRTVSVEEVPAVLQLRATQDPPRSQEAMPTRHNVRWEENVIDNENMNKKKTKICCIFHPQNEDEEECNHHSDDDGSSSSGSSSSESENEKDLDFNERRQRRLERRHRKLEKKRSYSPNAYEIQPDYSEYRRKQQEKKDMGHHHHHHSH", "soluble on expression in E. coli": "soluble"}
{"sequence": "MSGNSSTDMYLFKKSLKELKGKKGKGTELISVYVPAGRRLSDISQYLRQELSQSSNIKSKTTMKNVQSAIEVILQRLKLLKEPLEMGVIIFAGMIPRGGPGTEKMEVYVLEPPEPVKTFVYRCDSLFYTDPLEDFIQDTEVYGVILVDRNEATIGTVKGKTITVLKKLTSGVPGKFKAGGQSARRLERLIDDAAHQFMVRIGEYATESFMPILEEKKLKGLLLGGPGNTKNEFAEKDYLHHELKKKIIDTFDLCYTEEFGIRELLDKASDLLRDLDLMKEKNLIQKFFKELIKDDGGLSAYGEAQVMKYLEMGAIDTLIVTEDIGITRVTVKCNNCDYAQEVNVKTNEMFKFEEQLKTKACPTCGGAMYIDEEKDIIEHLSDLCHMHNTDIIVVSTDTEEGSQISRAFKGMAAILRYKL", "soluble on expression in E. coli": "not soluble"}
{"sequence": "MSHALRAVFLDHASLDLGDLDMRPLRAAFDELQLHAASQPQEVAARLHDARVAISNKVPIDAQCIAACPELELILISATGTNNIDLAAARERGIVVANCHGYGTPSVAQHTLALLLALATRLPDYQQAVRSGRWQQSSQFCLLDFPIVELEGKTLGLLGHGELGGAVARLAEAFGMRVLLGQLPGRPARADRLPLGELLPRVDALTLHCPLTEDTRGMLGSAELALMKPGAFLVNTARGGLVDEQALADALRGGHLGGAATDVLSVEPPRNGNPLLAPDIPRLIVTPHNAWGSREARQRIVGQLAENAEAWKAGR", "soluble on expression in E. coli": "not soluble"}
{"sequence": "MSHKLPSATDKYYFEVLRNEEKSEMLKFLLESFRVDEPLNRASKISCEEIEKCLDGALDRALKTESSILARSQDTHEIVGCMLNSVWRRDESLCTPGEEDKDFEFHTIRKEVAMVAEILNELHESFWSLRPDQDVVLHFEISSVSVNHRRQGLASKFMNWTENKKFLDTFGATGIATEASSLANQALLAKRGYSTIATTLLDTKVDPDTGKPILVCDDGTDRVNLMFKTF", "soluble on expression in E. coli": "not soluble"}
{"sequence": "MSHLRIPANWKVKRSTPFFTKENVPAALLSHHNTAAGVFGQLCVMEGTVTYYGFANETATEPEVKVVINAGQFATSPPQYWHRVELSDDARFNIHFWVEEDHQGEEMYQQKKALEHHHHHH", "soluble on expression in E. coli": "soluble"}
{"sequence": "MSHLVYVSRVVAAPIERVWPHLRDFNGLSAWHPGVADSRLEEGGRDDAPGTVRFLSLNPSGYVRERLLMLDDAGRSLRYAIIETDLPMRDYVAGVDLCPVTEGGGTFAQWWADFDVVAGANRDEVARLVGEGVFAAGLQALDQYLRGRQALEHHHHHH", "soluble on expression in E. coli": "not soluble"}
{"sequence": "MSIAIIIGTHGAAAEQLLKTAEMILGEQSNVAYIDFVPGENAETLIEKYNDRLTGLDTSKGVLFLVDTWGGSPFNAASRIAIDKENYEVVTGVNIPMLAETFMARDDEPSFAELVAVAVETGREGVKALKAPDVKSDKPETQPAAPVPTAKAPAVALGPNDHMKIGLARIDDRLIHGQVATRWTKETNVNRIIVVSDEVAADKMRKTLLTQVAPPGVTAHVVDVEKAIRVYNNPKYANDRVMLLFTNPTDVVRLVEGGVDIKSVNIGGMAFRQGKTQVNNAVSIDEKDIEAFNKLNARGIELEVRKVSSDSRLKMMDLISKLNK", "soluble on expression in E. coli": "not soluble"}
{"sequence": "MSIEEEDTNKITCTQDFLHQYFVTERVSIQFGLNNKTVKRINKDEFDKAVNCIMSWTNYPKPGLKRTASTYLLSNSFKKSATVSLPFILGDPVCMPKRVESNNNDTCLLYSDTLYDDPLIQRNDQAGDEIEDEFSFTLLRSEVNEIRPISSSSTAQILQSDYSALMYERQASNGSIFQFSSP", "soluble on expression in E. coli": "not soluble"}
{"sequence": "MSIEWYAVHTLVGQEEKAKANLEKRIKAFGLQDKIFQVLIPTEEVVELREGGKKEVVRKKLFPGYLFIQMDLGDEEEPNEAWEVVRGTPGITGFVGAGMRPVPLSPDEVRHILEVSGLLGKKEAPKAQVAFREGDQVRVVSGPFADFTGTVTEINPERGKVKVMVTIFGRETPVELDFSQVVKA", "soluble on expression in E. coli": "soluble"}
{"sequence": "MSIKILKPGLFSTIQDIGRLGYQDLGFSEAGALDYYSLSIAQKLIGNHGPAIEYTLVGPNIEFLTDNTFAIVGGDSEPKLNGNKIDLLTVYHVRNGDQLDIGQITEGARGYIVFGHPLKINKVAQSYSTHVRSGMGGFKGRALKKYDVIATQVNHNYKTNLGKTIDFSSIPDNNYIHVIEGPQINEFDEETIAKFVNSDFKISDQSDRMGYRLKGNTVAPKNSADIISEPVALGSIQVPNDGNPIILLNDKQTIGGYTKIATVTQLDLRKLAQMKPGDIIQFKWITVEEASKKLKEFNTKFEQLLKRFDEQPLFNLNQLRHTSNKIAEIIKEDRLEHHHHHH", "soluble on expression in E. coli": "not soluble"}
{"sequence": "MSIRSGSRRLELPHLSFPGLLRMNIHKNARLTPLRREEMAVAVFGGRLTKAQAARLYGVSLKIVSRWTERFRISGRAAMTDRSSRPTRSPRQMGQDIVERILHLRRQRLTGKHIAMETGVSPATVSRILRRAKLSRMKDIDPVEPVIRYEYAEPGGLIHLDIKRLGRFERVGHRITGNRTRQSNTRGVGWEYVHVCIDDVSRIAFTDIFPDEKAIMPLEHHHHHH", "soluble on expression in E. coli": "not soluble"}
{"sequence": "MSITAQLAALAGHGIELAKEIFAHGTSLKSKEDLAAVLGFDPTRVGRYQKTAKALFGPTDQPQLRAQAIAIAQKNNFSIDVLALINCKVGRLADAPLREEFRLELHRFAVDNSYTAIKQFANDQLEKRNGPNPARQHSLRYARFSHHPDANGMRYLITSLPDETMTAIEAKLVDKAKAHKSDTISM", "soluble on expression in E. coli": "not soluble"}
{"sequence": "MSKAFDLVVIGAGSGGLEAGWNAATLYGKRVAVVDVQTSHGPPFYAALGGTCVNVGCVPKKLMVTGAQYMDHLRESAGFGWEFDGSSVKANWKKLIAAKNEAVLDINKSYEGMFNDTEGLDFFLGWGSLESKNVVVVRETADPKSAVKERLQADHILLATGSWPQMPAIPGIEHCISSNEAFYLPEPPRRVLTVGGGFISVEFAGIFNAYKPPGGKVTLCYRNNLILRGFDETIREEVTKQLTANGIEIMTNENPAKVSLNTDGSKHVTFESGKTLDVDVVMMAIGRIPRTNDLQLGNVGVKLTPKGGVQVDEFSRTNVPNIYAIGDITDRLMLTPVAINEGAALVDTVFGNKPRKTDHTRVASAVFSIPPIGTCGLIEEVAAKEFEKVAVYMSSFTPLMHNISGSKYKKFVAKIVTNHSDGTVLGVHLLGDGAPEIIQAVGVCLRLNAKISDFYNTIGVHPTSAEELCSMRTPSYYYVKGEKMEKLPDSNL", "soluble on expression in E. coli": "soluble"}
{"sequence": "MSKDAVSILFLGIDDNEGRRKNGQTTEHSRTDSMILSTFSPEKRQIRLLSIPRDTISYIPKVGYYDKITHAHAYGGPVAAMDSVEATLNVPVDYYVRVNMDAFVEAVDELGGIYYDVPYDLNEPNTDDSGRIKIKKGYQKLNGDEALAVARTRHHDSDLKRGERQMDLIKLLFQKAKSLDSYDKLDDLVQIVGKNAKHNLTSSEIKSLASMYLSDDIEFKKSQLKGKDDYLQNIYYYNPSVSSIMKYSNILRSDLGLSKITDKDEFLDQRVIKHYGTLIPLTPLDQSLLKNNQKDSSSSDDNNDDSTNSDNNNNIQSSEENSSNSNEGIDQSSQGSTQSDNYNQTNSSNSFNNNQDQMNQIYLEHHHHHH", "soluble on expression in E. coli": "soluble"}
{"sequence": "MSKDEIKKPVVLIYCDTIEGTNIYLKKICEGLEEEGVPFQIQQVEKVEDSVEVLAQNASRNSNLGIGIGVLKNGDCALLQRRLPPNLPIQTLRGEKYDPNLYRNIGINAARLAKNLPLVFA", "soluble on expression in E. coli": "not soluble"}
{"sequence": "MSKDYQSLAKLSPFELKDELIKIASSDGNRLMLNAGRGNPNFLATTPRRAFFRLGLFAAAESELSYSYMTTVGVGGLAKIDGIEGRFERYIAENRDQEGVRFLGKSLSYVRDQLGLDPAAFLHEMVDGILGCNYPVPPRMLNISEKIVRQYIIREMGADAIPSESVNLFAVEGGTAAMAYIFESLKLNGLLKAGDKVAIGMPVFTPYIEIPELAQYALEEVAINADPSLNWQYPDSELDKLKDPAIKIFFCVNPSNPPSVKMDQRSLERVRNIVAEHRPDLMILTDDVYGTFADDFQSLFAICPENTLLVYSFSKYFGATGWRLGVVAAHQQNVFDLALDKLQESEKVALDHRYRSLLPDVRSLKFIDRLVADSRAVALNHTAGLSTPQQVQMALFSLFALMDEADEYKHTLKQLIRRRETTLYRELGMPPLRDENAVDYYTLIDLQDVTAKLYGEAFSEWAVKQSSTGDMLFRIADETGIVLLPGRGFGSNRPSGRASLANLNEYEYAAIGRALRKMADELYAEYSGQAQNLKLAAALEHHHHHH", "soluble on expression in E. coli": "soluble"}
{"sequence": "MSKEYHIRELIMRLARLDVSESWAEDLNPAQRAVLEYLSRANKFSRSPSHVAAFLGTTRGTISQTFKALLQKNYVTEKRSQSDKRVISFDLTQKGRALLARPRLLISGLESLDSSEQNALLSTLQSTLNSLLEQNKGQPFGLCKECRHFTSSNGGGYCNLLSEKLAPPETEQICHEQDPL", "soluble on expression in E. coli": "not soluble"}
{"sequence": "MSKFTIGPLPCKNPESFTKLSAKKDTVRKTEPVEVVCRNVEGENNGECYKIKAPKTPFIINHLEKNYIPKPKETTKKRRAGEAGGVKREHSTSESDDQLEDANQPSTSSQQSSSRKKQRNQQDI", "soluble on expression in E. coli": "not soluble"}
{"sequence": "MSKKLLIKTWGCQMNEYDSSKMADLLNAANGYELTEEPEEADVLLLNTCSIREKAQEKVFHQLGRWKTLKDKKPGVVIGVGGCVATQEGDHIRERAPYVDVIFGPQTLHRLPEMIKQSQTDDAPVMDISFPEIEKFDRLPEPRAEGATAFVSIMEGCSKYCTYCVVPYTRGEEVSRPMDDVLFEIAQLAEQGVREVNLLGQNVNAYRGPMHDGEICSFAELLRLVASIDGIDRIRFTTSHPLEFTDDIIAVYEDTPELVSFLHLPVQSGSDRILTMMKRPHTAIEYKSIIRKLRKARPDIQISSDFIVGFPGETDKDFQDTMKLIKDVDFDMSFSFIFSPRPGTPAADYPCDIPEQVKKERLYELQQTINAQAMRYSRLMLATEQRVLVEGPSKKNLMELRARTENNRVVNFEGSADLIGQFVDVKITDVFANSLRGELVRTEKDMDLRSVISPTQMMAKTRREDELGVATFTPLEHHHHHH", "soluble on expression in E. coli": "soluble"}
